Experimental data reported in patent US20100047164A1.

Molecular target: chondroitin sulfate proteoglycan (human) (UniProt Q6UVK1)

Question: “MEL-14 PE38-KDEL (from UniProt P11439) (scFv)” was tested. Which IC50 cytotoxicity, A375 (Expt 2) melanoma cells (Mel14-KDEL) did it give?
Answer: Its IC50 cytotoxicity, A375 (Expt 2) melanoma cells (Mel14-KDEL) is 0.5 µg/mL.

Question: And the IC50 cytotoxicity, A375 (Expt 3) melanoma cells (Mel14-KDEL)?
Answer: The IC50 cytotoxicity, A375 (Expt 3) melanoma cells (Mel14-KDEL) was 0.45 µg/mL.

Question: And the IC50 cytotoxicity, D54 glioma cells (Mel14-KDEL)?
Answer: The IC50 cytotoxicity, D54 glioma cells (Mel14-KDEL) was 0.05 µg/mL.

Question: And the IC50 cytotoxicity, D79 glioma cells (Mel14-KDEL)?
Answer: Its IC50 cytotoxicity, D79 glioma cells (Mel14-KDEL) is 0.2 µg/mL.

Question: And the IC50 cytotoxicity, D245 glioma cells (Mel14-KDEL)?
Answer: Its IC50 cytotoxicity, D245 glioma cells (Mel14-KDEL) is 0.004 µg/mL.

Question: What about the IC50 cytotoxicity, D247 glioma cells (Mel14-KDEL) of the same substance?
Answer: The IC50 cytotoxicity, D247 glioma cells (Mel14-KDEL) was 0.1 µg/mL.

Question: And the IC50 cytotoxicity, H350 melanoma cells (Mel14-KDEL)?
Answer: Its IC50 cytotoxicity, H350 melanoma cells (Mel14-KDEL) is 0.008 µg/mL.

Question: And the IC50 cytotoxicity, Malme3M melanoma cells (Mel14-KDEL)?
Answer: The IC50 cytotoxicity, Malme3M melanoma cells (Mel14-KDEL) was 0.001 µg/mL.

Question: And the IC50 cytotoxicity, SKMel2 melanoma cells (Mel14-KDEL)?
Answer: The IC50 cytotoxicity, SKMel2 melanoma cells (Mel14-KDEL) was 0.036 µg/mL.

Question: And the IC50 cytotoxicity, SKMel5 melanoma cells (Mel14-KDEL)?
Answer: The IC50 cytotoxicity, SKMel5 melanoma cells (Mel14-KDEL) was 0.06 µg/mL.

Question: What about the IC50 cytotoxicity, TB2620 glioma cells (Mel14-KDEL) of the same substance?
Answer: The IC50 cytotoxicity, TB2620 glioma cells (Mel14-KDEL) was 0.15 µg/mL.

Question: Which IC50 cytotoxicity, A375 (Expt 2) melanoma cells (9.2.27F10) does the source give for “9.2.27 PE38-KDEL (from UniProt P11439) (scFv)” here?
Answer: Its IC50 cytotoxicity, A375 (Expt 2) melanoma cells (9.2.27F10) is 4.5 µg/mL.

Question: What about the IC50 cytotoxicity, A375 (Expt 2) melanoma cells (9.2.27F11) of the same substance?
Answer: The IC50 cytotoxicity, A375 (Expt 2) melanoma cells (9.2.27F11) was 4.5 µg/mL.

Question: What about the IC50 cytotoxicity, A375 (Expt 3) melanoma cells (9.2.27F11) of the same substance?
Answer: Its IC50 cytotoxicity, A375 (Expt 3) melanoma cells (9.2.27F11) is 0.6 µg/mL.

Question: And the IC50 cytotoxicity, D54 glioma cells (9.2.27F10)?
Answer: The IC50 cytotoxicity, D54 glioma cells (9.2.27F10) was 0.055 µg/mL.

Question: What about the IC50 cytotoxicity, D54 glioma cells (9.2.27F11) of the same substance?
Answer: Its IC50 cytotoxicity, D54 glioma cells (9.2.27F11) is 0.07 µg/mL.

Question: And the IC50 cytotoxicity, D79 glioma cells (9.2.27F10)?
Answer: The IC50 cytotoxicity, D79 glioma cells (9.2.27F10) was 0.22 µg/mL.

Question: What about the IC50 cytotoxicity, D79 glioma cells (9.2.27F11) of the same substance?
Answer: Its IC50 cytotoxicity, D79 glioma cells (9.2.27F11) is 0.1 µg/mL.

Question: And the IC50 cytotoxicity, D245 glioma cells (9.2.27F10)?
Answer: Its IC50 cytotoxicity, D245 glioma cells (9.2.27F10) is 0.008 µg/mL.

Question: What about the IC50 cytotoxicity, D245 glioma cells (9.2.27F11) of the same substance?
Answer: Its IC50 cytotoxicity, D245 glioma cells (9.2.27F11) is 0.006 µg/mL.

Question: And the IC50 cytotoxicity, D247 glioma cells (9.2.27F11)?
Answer: Its IC50 cytotoxicity, D247 glioma cells (9.2.27F11) is 0.08 µg/mL.

Question: And the IC50 cytotoxicity, H350 melanoma cells (9.2.27F10)?
Answer: The IC50 cytotoxicity, H350 melanoma cells (9.2.27F10) was 0.02 µg/mL.

Question: And the IC50 cytotoxicity, H350 melanoma cells (9.2.27F11)?
Answer: Its IC50 cytotoxicity, H350 melanoma cells (9.2.27F11) is 0.02 µg/mL.

Question: And the IC50 cytotoxicity, Malme3M melanoma cells (9.2.27F10)?
Answer: Its IC50 cytotoxicity, Malme3M melanoma cells (9.2.27F10) is 0.018 µg/mL.

Question: And the IC50 cytotoxicity, Malme3M melanoma cells (9.2.27F11)?
Answer: Its IC50 cytotoxicity, Malme3M melanoma cells (9.2.27F11) is 0.02 µg/mL.

Question: And the IC50 cytotoxicity, SKMel2 melanoma cells (9.2.27F10)?
Answer: Its IC50 cytotoxicity, SKMel2 melanoma cells (9.2.27F10) is 2.4 µg/mL.

Question: What about the IC50 cytotoxicity, SKMel2 melanoma cells (9.2.27F11) of the same substance?
Answer: Its IC50 cytotoxicity, SKMel2 melanoma cells (9.2.27F11) is 0.7 µg/mL.

Question: And the IC50 cytotoxicity, SKMel5 melanoma cells (9.2.27F10)?
Answer: The IC50 cytotoxicity, SKMel5 melanoma cells (9.2.27F10) was 0.35 µg/mL.

Question: What about the IC50 cytotoxicity, SKMel5 melanoma cells (9.2.27F11) of the same substance?
Answer: Its IC50 cytotoxicity, SKMel5 melanoma cells (9.2.27F11) is 0.2 µg/mL.

Question: What about the IC50 cytotoxicity, TB2620 glioma cells (9.2.27F10) of the same substance?
Answer: The IC50 cytotoxicity, TB2620 glioma cells (9.2.27F10) was 0.5 µg/mL.

Question: What about the IC50 cytotoxicity, TB2620 glioma cells (9.2.27F11) of the same substance?
Answer: The IC50 cytotoxicity, TB2620 glioma cells (9.2.27F11) was 0.18 µg/mL.
